{
  "source": "patent US20180105832A1",
  "about": "(FRAUNHOFER GESELLSCHAFT ZUR FOERDERUNG DER ANGEWANDTEN …, published 2018)",
  "target": "T1, Pepscan peptide 3 of CSP (amino acids 25-37) (Aspergillus flavus)",
  "T1 peptide": "YDDPDCDPGFTCR",
  "assay": "Pepscan-ELISA",
  "data": [
    {"binder": "Aspergillus-specific monoclonal antibody AP10 (mAbAP10) (antibody, V domains shown, also called CSP-specific mAbAP10) VH: DVQLVESGGGLVQPGGSRKLSCAASGFTFSSFGMHWVRQAPEKGLEWVAYINGGSGTIYYADTVKGRFTISRDNPRNTLFLQMETTSLRSEDTAMYYCARGGDDPFAYWGQGTLVTV VL: IQMTQSPSSLSAYLGDKVTITCMASQDINNHIAWYQLKPGKGPRLLIHYTSTLHPGIPSRFSGSGSGRDYSFSISDLEPEDIATYYCLQYDNLRTFGGGTKLEIK", "values": [
      {"measurement": "binding efficiency relative to peptide 4", "value": 2, "unit": "fold"}
    ]}
  ]
}
